One molecule from article PMC8155045 can be followed below.

The target of this test is mCherry-YC (37 kDa isoform). The experiment in a line: FRET or BRET; FLIM-FRET (phasor analysis) in nuclei of live HeLa cells, eGFP donor and mCherry acceptor, all three NF-Y subunits transfected (third one untagged), 24 h after transfection, 37 degrees, 5% CO2. (In BRET a luciferase serves as donor, and the signal depends on an acceptor being close.)

B1: EGFP-YB (natural protein)
chain: MTMDGDSSTTDASQLGISADYIGGSHYVIQPHDDTEDSMNDHEDTNGSKESFREQDIYLPIANVARIMKNAIPQTGKIAKDAKECVQECVSEFISFITSEASERCHQEKRKTINGEDILFAMSTLGFDSYVEPLKLYLQKFREAMKGEKGIGGAVTATDGLSEELTEEAFTNQLPAGLITTDGQQQNVMVYTTSYQQISGVQQIQFS
In turn, B1 registered an FRET efficiency of 16% and a fraction of FRET (% pixels) of 38.2 % pixels.
